From PMC11272584 (Nature Metabolism, 2024)
Substitutions are numbered along the chain they refer to.

Tests used:
[1] = molecular target: T1, GIPR I221M (human) (UniProt P48546)
T1 sequence: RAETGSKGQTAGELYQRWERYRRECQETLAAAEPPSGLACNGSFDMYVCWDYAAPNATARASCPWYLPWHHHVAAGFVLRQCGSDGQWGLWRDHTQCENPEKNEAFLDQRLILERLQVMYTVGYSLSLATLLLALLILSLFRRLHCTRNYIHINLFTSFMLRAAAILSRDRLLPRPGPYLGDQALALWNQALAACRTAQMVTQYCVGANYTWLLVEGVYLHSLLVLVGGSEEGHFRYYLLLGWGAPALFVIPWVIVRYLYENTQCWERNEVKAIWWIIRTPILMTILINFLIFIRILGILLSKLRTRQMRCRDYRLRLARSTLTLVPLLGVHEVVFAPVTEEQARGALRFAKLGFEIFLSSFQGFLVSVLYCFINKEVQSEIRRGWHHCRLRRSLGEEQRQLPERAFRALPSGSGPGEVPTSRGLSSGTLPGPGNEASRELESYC

[2] = molecular target: T2, GIPR H166Y (human) (UniProt P48546)
T2 sequence: T1 sequence with H145Y, M200I

- β-arrestin 2 recruitment (BRET) on stimulation with GIP(1-42): logEC50 (Arrestin) (log M (inferred)) [1]: -9.38
- β-arrestin 2 recruitment (BRET) on stimulation with GIP(1-42): logEC50 (Arrestin) (log M (inferred)) [2]: -9.22
Substance: β-arrestin 2 (Rluc8-Arrestin-3-Sp1) (from UniProt P32121 1-409) (natural protein)
